Data set [1] deals with T1, Taq DNA polymerase (Thermus aquaticus, UniProt P19821 P19821:1-832). Description: FP filter; 55C; IT50 44.6C. To be noted: tags: rTaq, 94 kDa, Roche Molecular Systems; label: end-labeled.
Data set [2] concerns the target T1, Taq DNA polymerase. Description: inhibition; 45C. Conditions: tags: rTaq, 94 kDa, Roche Molecular Systems; label: end-labeled. The protocol: (§1) As set forth in Table 12, the $IT50$ values of truncated ligands TQH6-Tr, TQH22-Tr and TQH28-Tr were decreased by 5–9° C. upon truncation.
(§2) Measurement of $IC50$ Values. $IC50$ values (the concentration of inhibitor required to produce 50% of the product in the assay) were obtained using hairpin extension assays. In a typical inhibition assay, a 20 μL reaction contained either 0.25 (0.04) pmoles of Taq polymerase (5 U) (1 U), 0.125 pmoles of Tth polymerase (2.5 U) or 0.05 pmoles of TZ05 polymerase (1 U), oligonucleotide inhibitor (at varying concentrations), […] dNTPs in either Tris or Tricine buffer (Taq and Tth pol) or TZ05 buffer (TZ05 pol). Gel purified, 5'-end-labeled hairpin DNA substrate (DNA-HP; 5'-[…]-3' (SEQ ID NO:6)) was then added to a final concentration of 250 nM and the reactions were incubated for a given time at the desired temperature as indicated in the figure legends (30 minutes for TZ05 pol). The reaction was stopped by adding 5 μL of 0.5 M EDTA (pH 8.0) followed by formamide gel loading buffer. Extension products were resolved on 10% polyacrylamide gels under denaturing conditions and quantitated by phosphorimager. The amount of products formed in the presence of inhibitor was normalized to the product formed in the absence of an inhibitor to obtain the percent of product.

For data set [3], the target named is T1, Taq DNA polymerase. Description: FP filter; Tris buffer 55C; 5 pM at 40C; Tricine 4.6 (40C), 36 (55C) pM; IT50 54.8C. Conditions: tags: rTaq, 94 kDa, Roche Molecular Systems; label: end-labeled. The protocol: (§3) Binding interactions of individual sequences with Taq polymerase was measured by nitrocellulose filter binding at 55° C. […] Clones 6 (SEQ ID NO:78), 22 (SEQ ID NO:81) and 28 (SEQ ID NO:87) all show high-affinity binding to Taq polymerase at 55° C. as characterized by their K_d values in the low picomolar range.
(§4) The binding analysis shown in FIGS. 4A–E were performed in the Tris buffer at 55° C. […] (Table 7).

The target of data set [4] is T1, Taq DNA polymerase. Description: FP filter; 55C; IT50 52.3C. To be noted: tags: rTaq, 94 kDa, Roche Molecular Systems; label: end-labeled.
Data set [5] concerns the target T1, Taq DNA polymerase. Description: FP filter; Tris buffer 55C; 5 pM at 40C; Tricine 9.4 (40C), 116 (55C) pM; IT50 52C. To be noted: tags: rTaq, 94 kDa, Roche Molecular Systems; label: end-labeled. Here is the method: as §3, §4
Data set [6] deals with T1, Taq DNA polymerase. Description: FP filter; 55C; IT50 52C. To be noted: tags: rTaq, 94 kDa, Roche Molecular Systems; label: end-labeled.
In data set [7] the target is T1, Taq DNA polymerase. The data set is described as follows: FP filter; 55C; IT50 41C. To be noted: tags: rTaq, 94 kDa, Roche Molecular Systems; label: end-labeled.
The target in data set [8] is T1, Taq DNA polymerase. The data set is described as follows: inhibition; 45C; IT50 56.1C. Conditions: tags: rTaq, 94 kDa, Roche Molecular Systems; label: end-labeled. The protocol: as §1, §2
Data set [9] has as its target T1, Taq DNA polymerase. Description: FP filter; Tris buffer 55C; 3.8 pM at 40C; Tricine 5.6 (40C), 18 (55C) pM; IT50 56C. To be noted: tags: rTaq, 94 kDa, Roche Molecular Systems; label: end-labeled. Here is the method: as §3, §4
The target in data set [10] is T1, Taq DNA polymerase. Description: FP filter; 55C; IT50 53.7C. Conditions: tags: rTaq, 94 kDa, Roche Molecular Systems; label: end-labeled. Here is the method:
as §3

For data set [11], the target named is T1, Taq DNA polymerase. Description: FP filter; Tm 51C. To be noted: tags: rTaq, 94 kDa, Roche Molecular Systems; stem-loop. Here is the method: Room Temperature. To assess the affinity of oligonucleotide libraries and individual ligands the nitrocellulose filter binding technique was used. Briefly, gel-purified ^32P ss-DNA pools labeled at the 5' end were suspended in the binding buffer, heated to 80° C., chilled on ice and then brought to room temperature. The DNA (5–10 pM) was then incubated for 15 minutes at room temperature with varying amounts of the target polymerase in 50 µL of the appropriate binding buffer containing 0.1 µg of tRNA and 0.01% hSA. The DNA concentrations were kept lower than 100 pM to ensure equilibrium in the presence of excess protein concentrations. […] The amount of DNA bound to the filters was quantitated by measuring the radioactivity of the filters by liquid scintillation counting. The quantity of DNA bound to filters in the absence of protein was used for background correction. […]
[1]The boxed region denotes the conserved sequence element with the predicted stem-loop structure identified in the Family I sequences; vertical lines signify Watson-Crick type base pairing; circles show an uncommon G-T base pair. [2]K_d values were measured by the nitrocellulose filter binding technique described in Example 1. [3]Melting transitions (T_m) were measured in a PCR buffer containing 10 mM Tris-HCl, 50 mM KCl, 2 mM MgCl_2, pH 8.3, at a 1° C./min temperature ramp.

The target in data set [12] is T1, Taq DNA polymerase. The data set is described as follows: FP filter; printed as >>1000; 55C; IT50 <40C. Conditions: tags: rTaq, 94 kDa, Roche Molecular Systems; label: end-labeled. The protocol:
as §3

T1 sequence (P19821 whole entry, the tested form may be a part, one chain of several): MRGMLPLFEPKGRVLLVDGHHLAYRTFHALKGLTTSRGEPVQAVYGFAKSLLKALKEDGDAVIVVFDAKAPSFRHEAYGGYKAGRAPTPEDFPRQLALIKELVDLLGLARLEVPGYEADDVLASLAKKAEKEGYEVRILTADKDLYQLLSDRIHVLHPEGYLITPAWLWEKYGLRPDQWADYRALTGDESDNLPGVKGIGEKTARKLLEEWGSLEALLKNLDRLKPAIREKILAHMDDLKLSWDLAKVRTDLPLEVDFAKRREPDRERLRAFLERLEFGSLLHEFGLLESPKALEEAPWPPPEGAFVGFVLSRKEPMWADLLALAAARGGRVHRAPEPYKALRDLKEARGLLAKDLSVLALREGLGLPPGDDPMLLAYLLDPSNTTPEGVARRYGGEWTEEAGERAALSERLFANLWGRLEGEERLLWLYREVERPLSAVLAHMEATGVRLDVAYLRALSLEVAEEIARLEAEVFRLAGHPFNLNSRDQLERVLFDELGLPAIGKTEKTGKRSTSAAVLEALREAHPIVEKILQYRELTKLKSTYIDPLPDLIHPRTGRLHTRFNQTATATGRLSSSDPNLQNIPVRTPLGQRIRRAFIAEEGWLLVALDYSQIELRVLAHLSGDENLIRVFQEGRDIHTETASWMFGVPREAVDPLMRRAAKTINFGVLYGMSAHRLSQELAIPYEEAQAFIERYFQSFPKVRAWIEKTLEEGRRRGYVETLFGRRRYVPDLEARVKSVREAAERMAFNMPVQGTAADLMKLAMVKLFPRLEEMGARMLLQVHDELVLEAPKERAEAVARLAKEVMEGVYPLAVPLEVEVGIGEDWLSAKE

B1: ligand 10 (ssDNA)
DNA: TTCTCGGTTGGTCTCTGGCGGAGCGGATCAGACACGAAACATTGCGGACTTTTGTCTTGTGTATGATTCGCTTTTCCC
Molecule B1 came in with a dissociation constant (Kd) with Taq DNA polymerase [1] of 0.03 nM.

B2: ligand 6 (TQH6) (ssDNA)
DNA: TTCTCGGTTGGTCTCTGGCGGAGCGAATCATACGAAGACATTCCAACGTTTTGTCTTGTGTATGATTCGCTTTTCCC
B2 gave an IC50 in the data set with Taq DNA polymerase [2] of 30 nM. For the same molecule, the Kd with Taq DNA polymerase [3] is 0.0085 nM.

B3: ligand 15 (ssDNA)
DNA: TTCTCGGTTGGTCTCTGGCGGAGCATGCACAGCGACATTCTCAGCGTTTTGTCGTCTTGTGTATGATTCGCTTTTCCC
B3 showed a Kd with Taq DNA polymerase [4] of 0.0138 nM.

B4: ligand 28 (TQH28) (ssDNA)
DNA: TTCTCGGTTGGTCTCTGGCGGAGCAGGAGCAAGAATCATTCTTAGCGTTTTGATTCTTGTGTATGATTCGCTTTTCCC
B4 showed a half-maximal inhibitory concentration (IC50) with Taq DNA polymerase [2] of 37 nM. The affinity in the data set with Taq DNA polymerase [5], expressed as Kd, was 0.0135 nM.

B5: ligand 36 (Taq selection) (ssDNA)
DNA: TTCTCGGTTGGTCTCTGGCGGAGCAGAAGCAAGAATCATTCTTAGCGTTTTGATTCTTGTGTATGATTCGCTTTTCCC
The molecule B5 registered a Kd with Taq DNA polymerase [6] of 0.031 nM.

B6: ligand 20 (ssDNA)
DNA: TTCTCGGTTGGTCTCTGGCGGAGCGATCAGACACGAAACATTGCGGACTTTTGTCTTGTGTATGATTCGCTTTTCCC
Molecule B6 showed a Kd with Taq DNA polymerase [7] of 0.105 nM.

B7: ligand 22 (TQH22) / TZ3 (ssDNA)
DNA: TTCTCGGTTGGTCTCTGGCGGAGCATACACGACGTCATTCTAGCGTTTTGACGTCTTGTGTATGATTCGCTTTTCCC
Consider B7, for which the IC50 in the data set with Taq DNA polymerase [8] turned out to be 37 nM. For the same molecule, in the data set with Taq DNA polymerase [9], the Kd was determined as 0.014 nM.

B8: ligand 19 (ssDNA)
DNA: TTCTCGGTTGGTCTCTGGCGGAGCGAATCGGACATCAAGGGTTCCAGCAGTGCTTCTTGTGTATGATTCGCTTTTCCC
Consider B8, for which the affinity in the data set with Taq DNA polymerase [10], expressed as Kd, was 0.0112 nM.
In the data set with Taq DNA polymerase [11], AAGACCAGACAATGTACAGTATTGGCCTGA (ssDNA, [none]) [Trnc.A-30 (30-mer)] gave a dissociation constant Kd of 0.6 nM.

B9: ligand 18 (ssDNA)
DNA: TTCTCGGTTGGTCTCTGGCGGAGCATACACGACGTCATTCTAGCGTTTTGTCTTGTGTATGATTCGCTTTTCCC
As for B9, in the data set with Taq DNA polymerase [12], the dissociation constant (Kd) is over 1 nM.

As usually defined, the Kd is the concentration at which binding is half-saturated. A lower Kd goes with a tighter complex. A word on the IC50: it is the midpoint of a concentration-inhibition curve. Low values mean greater potency in that assay, high ones weaker potency in that assay.

The values are drawn from patent US6183967, “Nucleic acid ligand inhibitors to DNA polymerases” (NeXstar Pharmaceuticals).
